Ends that are not written are not given here.
How the values were obtained:
Sqt1-Flag = assay: in vitro binding assay, Ni-affinity co-purification of Sqt1-Flag; design: species or system S. cerevisiae; settings: co-expression in E. coli, C-terminally (His)6-tagged Rpl10, Ni-affinity, SDS–PAGE and western blot
Protocol: For in vitro binding assays between Rpl10-(His)6 and Sqt1-Flag or between ctRpl10-(His)6 and ctSqt1, proteins were co-expressed from pETDuet-1 (Novagen) in Rosetta(DE3) (Novagen) or BL21(DE3) (Novagen) E. coli cells, respectively. Cells were grown in 200 ml of lysogeny broth medium and protein expression was induced at an OD600 of ∼0.6–0.8 by the addition of isopropyl-β-D-thiogalactoside to a final concentration of 0.5 mM. After 5 h of growth at 30 °C, cells were harvested and stored at −80 °C. Cells were resuspended in 25 ml lysis buffer (50 mM Tris-HCl (pH 7.5), 200 mM NaCl, 1.5 mM MgCl2 and 5% glycerol) and lysed with a M-110L Microfluidizer (Microfluidics). The lysate (30 ml volume) was adjusted by the addition of 300 μl 10% NP-40 to 0.1% NP-40 (note that from here onwards all buffers contained 0.1% NP-40). An aliquot of 100 μl of total extract (sample T) was taken and mixed with 100 μl of 6 × loading buffer. The total extract was then centrifuged at 4 °C for 20 min at 14,000 r.p.m. The soluble extract was transferred to a 50-ml Falcon tube and, as above, an aliquot of 100 μl of soluble extract (sample S) was taken and mixed with 100 μl of 6 × loading buffer. The insoluble pellet fraction (sample P) was resuspended in 3 ml of lysis buffer, and 10 μl thereof were mixed with 90 μl of lysis buffer and 100 μl of 6 × loading buffer. […]

[1] = target: T1, ScSqt1.53C (WD-repeat β-propeller domain of Sqt1) (Saccharomyces cerevisiae, UniProt P35184); assay: isothermal titration calorimetry (ITC), S. cerevisiae; type: binding; settings: for K / N / ΔH / ΔS: ScSqt1.53C, 15 °C, One Set of Sites fit
T1 construct: ScSqt1.53C (residues 53–431); (His)6 (C); made in house; host or cells: E. coli Rosetta(DE3)
T1 sequence (P35184 53-431): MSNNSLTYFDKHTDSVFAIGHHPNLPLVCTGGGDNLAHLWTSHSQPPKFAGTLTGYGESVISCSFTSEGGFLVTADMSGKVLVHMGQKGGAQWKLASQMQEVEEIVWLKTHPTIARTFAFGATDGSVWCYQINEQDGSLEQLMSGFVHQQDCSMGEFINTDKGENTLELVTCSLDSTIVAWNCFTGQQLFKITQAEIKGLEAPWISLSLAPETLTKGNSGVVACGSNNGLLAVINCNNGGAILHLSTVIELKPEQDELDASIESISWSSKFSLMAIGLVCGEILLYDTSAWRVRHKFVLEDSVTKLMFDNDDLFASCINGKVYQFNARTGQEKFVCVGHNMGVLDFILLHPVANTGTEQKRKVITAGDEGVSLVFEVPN
Protocol: ITC experiments were performed on a MicroCal ITC 2000 instrument (GE Healthcare). The following peptides, corresponding to the N-terminal 19 (without N-terminal methionine) or 20 amino acids of S. cerevisiae and C. thermophilum Rpl10, were synthesized with a free acid group at the C terminus (peptides&elephants): Rpl10(1–20) NH2-[…]-COOH, Rpl10(2–20) NH2-[…]-COOH, ctRpl10(1–20) NH2-[…]-COOH and ctRpl10(2–20) NH2-[…]-COOH. Peptides (1 mg each) were dissolved in the appropriate volume of gel-filtration buffer (20 mM HEPES–NaOH (pH 7.5), 200 mM NaCl, 20 mM KCl and 20 mM MgCl2), which was used for the purification of ScSqt1.53C and ctSqt1.52C, to obtain 1 mM stock solutions. Concentrations of proteins were determined by measuring the A280 using a NanoDrop Lite spectrophotometer (Thermo Scientific). For determination of the C. thermophilum Sqt1/L10-N binding, 200 μl of ctSqt1.52C (10 μM) was added to the sample cell and 2 μl of 100 μM solutions of the peptides was titrated in at 25 °C. For determination of the S. cerevisiae Sqt1/L10-N binding, 200 μl of ScSqt1.53C (100 μM) was added to the sample cell and 2 μl of 1 mM solutions of the peptides were titrated in at 15 °C. ITC data were processed using the Origin ITC Software (OriginLab) and thermodynamic parameters were obtained by fitting the data to a One Set of Sites binding model.

Sqt1 = assay: Y2H interaction with Sqt1; type: binding, S. cerevisiae; settings: reporter strain PJ69-4A, HIS3 and ADE2 reporters, 3 days at 30 °C
Protocol: For Y2H interaction assays, plasmids expressing bait proteins, fused to the Gal4 DNA-binding domain (G4BD), and prey proteins, fused to the Gal4 activation domain (G4AD), were co-transformed into reporter strain PJ69-4A. Y2H interactions were documented by spotting representative transformants in 10-fold serial dilution steps onto SC-Trp-Leu, SC-Trp-Leu-His (HIS3 reporter) and SC-Trp-Leu-Ade (ADE2 reporter) plates, which were incubated for 3 days at 30 °C. Growth on SC-Trp-Leu-His plates is indicative of a weak/moderate interaction, whereas only relatively strong interactions permit growth on SC-Trp-Leu-Ade plates.

ctSqt1.52C-(His)6 [2] = target: T2, ctSqt1.52C-(His)6 (Chaetomium thermophilum); assay: ITC; 200 μl ctSqt1.52C (10 μM) in the cell, 2 μl injections of 100 μM peptide, 25 °C; 20 mM HEPES–NaOH (pH 7.5), 200 mM NaCl, 20 mM KCl, 20 mM MgCl2; One Set of Sites model; approximate Kd
T2 chain: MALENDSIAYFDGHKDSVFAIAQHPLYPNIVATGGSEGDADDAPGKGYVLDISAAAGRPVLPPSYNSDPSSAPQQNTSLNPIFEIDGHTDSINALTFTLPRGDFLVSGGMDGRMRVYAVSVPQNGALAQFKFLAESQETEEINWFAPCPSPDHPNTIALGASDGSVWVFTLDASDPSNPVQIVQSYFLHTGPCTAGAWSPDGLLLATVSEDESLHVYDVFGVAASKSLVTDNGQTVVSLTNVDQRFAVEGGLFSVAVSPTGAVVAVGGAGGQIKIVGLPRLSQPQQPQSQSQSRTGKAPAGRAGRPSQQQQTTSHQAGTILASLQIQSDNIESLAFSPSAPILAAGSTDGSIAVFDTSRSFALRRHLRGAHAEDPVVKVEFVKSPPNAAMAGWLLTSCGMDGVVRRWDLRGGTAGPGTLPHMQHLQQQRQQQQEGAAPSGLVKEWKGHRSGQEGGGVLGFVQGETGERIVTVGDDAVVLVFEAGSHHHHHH

ctSqt1.52C-(His)6 [3] = target: T2, ctSqt1.52C-(His)6; assay: ITC
Sqt1.53C-(His)6 [4] = target: T3, Sqt1.53C-(His)6 (S. cerevisiae, UniProt P35184 53-431); assay: ITC; 200 μl ScSqt1.53C (100 μM) in the cell, 2 μl injections of 1 mM peptide, 15 °C; 20 mM HEPES–NaOH (pH 7.5), 200 mM NaCl, 20 mM KCl, 20 mM MgCl2; One Set of Sites model; approximate Kd; settings: both partners purified
T3 construct: Sqt1, S. cerevisiae, residues 53–431 (WD-repeat β-propeller domain); the ITC methods name only 'ScSqt1.53C'; the only free Sqt1.53C whose purification is described is Sqt1.53C-(His)6; also called ScSqt1.53C; source: E. coli Rosetta(DE3), purified (Ni-NTA, size-exclusion chromatography)
T3 sequence (looked up): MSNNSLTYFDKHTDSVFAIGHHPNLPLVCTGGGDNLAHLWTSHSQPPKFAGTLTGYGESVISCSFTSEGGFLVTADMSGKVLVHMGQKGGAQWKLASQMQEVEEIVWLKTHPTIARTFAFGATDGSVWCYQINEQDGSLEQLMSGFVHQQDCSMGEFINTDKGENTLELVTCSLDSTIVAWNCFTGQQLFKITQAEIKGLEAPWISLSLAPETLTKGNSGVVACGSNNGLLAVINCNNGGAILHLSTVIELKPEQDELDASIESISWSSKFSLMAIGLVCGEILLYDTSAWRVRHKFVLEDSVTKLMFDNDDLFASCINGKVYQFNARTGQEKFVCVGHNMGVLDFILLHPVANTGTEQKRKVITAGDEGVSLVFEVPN

Sqt1.53C-(His)6 [5] = target: T4, Sqt1.53C-(His)6 (S. cerevisiae, UniProt P35184 53-431); assay: ITC
T4 chain: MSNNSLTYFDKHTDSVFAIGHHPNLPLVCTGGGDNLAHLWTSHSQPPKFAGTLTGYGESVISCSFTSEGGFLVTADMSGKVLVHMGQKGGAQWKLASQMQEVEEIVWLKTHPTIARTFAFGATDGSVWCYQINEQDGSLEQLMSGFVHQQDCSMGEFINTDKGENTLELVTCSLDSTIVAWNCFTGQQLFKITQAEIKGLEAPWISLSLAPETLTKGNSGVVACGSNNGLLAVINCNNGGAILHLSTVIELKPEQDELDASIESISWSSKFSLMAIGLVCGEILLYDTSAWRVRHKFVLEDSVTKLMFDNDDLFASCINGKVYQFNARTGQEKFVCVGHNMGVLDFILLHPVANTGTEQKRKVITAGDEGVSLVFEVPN

L10-N: N-terminal residues of Rpl10 (general term; co-crystals and pull-downs use co-expressed Rpl10(1–20)-(His)6) (MARRPARCYRYQKNKPYPKS; not fully specified)
co-purification with / interaction with Sqt1 (Sqt1-Flag): required and sufficient for a robust interaction both with full-length Sqt1 and its β-propeller domain

ARRPARCYRYQKNKPYPKS [ScL10-N(2–20)]
K [1]: 4.78E7±2.57E7 | N [1]: 1.076±0.0048 | ΔH [1]: −1.187E4±102.9 | ΔS [1]: −6.02 | preference of Sqt1 for the L10-N peptide lacking Met1 ([1]; vs peptide containing Met1, S. cerevisiae): only a slight preference

amino acids 1–20 of Rpl10: amino acids 1–20 of Rpl10, Y2H bait fused to G4BD (MARRPARCYRYQKNKPYPKS; also: fused to Gal4 DNA-binding domain; UniProt P41805 1-20, looked up, fragment)
Y2H interaction with Sqt1 (Sqt1): sufficient to mediate the interaction with Sqt1

MARRPARCYRYQKNKPYPKS [ScL10-N(1-20)]
K [1]: 2.33E7±1.79E7 | N [1]: 1.09±0.00692 | ΔH [1]: −1.101E4 +/−158.6 | ΔS [1]: −4.45

B1: Arg10 to glutamate: Rpl10 variant, Arg10 mutated to glutamate (protein, UniProt P41805 2-221, looked up, variant R10E)
Large ribosomal subunit …: ARRPARCYEYQKNKPYPKSRYNRAVPDSKIRIYDLGKKKATVDEFPLCVHLVSNELEQLSSEALEAARICANKYMTTVSGRDAFHLRVRVHPFHVLRINKMLSCAGADRLQQGMRGAWGKPHGLAARVDIGQIIFSVRTKDSNKDVVVEGLRRARYKFPGQQKIILSKKWGFTNLDRPEYLKKREAGEVKDDGAFVKFLSKKGSLENNIREFPEYFAAQA
Y2H interaction with Sqt1 (Sqt1): abolished

B2: Arg4 to glutamate: Rpl10 variant, substitution of Arg4 to glutamate (protein, UniProt P41805 2-221, looked up, variant R4E)
Large ribosomal subunit …: AREPARCYRYQKNKPYPKSRYNRAVPDSKIRIYDLGKKKATVDEFPLCVHLVSNELEQLSSEALEAARICANKYMTTVSGRDAFHLRVRVHPFHVLRINKMLSCAGADRLQQGMRGAWGKPHGLAARVDIGQIIFSVRTKDSNKDVVVEGLRRARYKFPGQQKIILSKKWGFTNLDRPEYLKKREAGEVKDDGAFVKFLSKKGSLENNIREFPEYFAAQA
Y2H interaction with Sqt1 (Sqt1): only slightly reduced the interaction with Sqt1

B3: Rpl10-(His)6: C-terminally (His)6-tagged Rpl10 (protein)
chain: MARRPARCYRYQKNKPYPKSRYNRAVPDSKIRIYDLGKKKATVDEFPLCVHLVSNELEQLSSEALEAARICANKYMTTVSGRDAFHLRVRVHPFHVLRINKMLSCAGADRLQQGMRGAWGKPHGLAARVDIGQIIFSVRTKDSNKDVVVEGLRRARYKFPGQQKIILSKKWGFTNLDRPEYLKKREAGEVKDDGAFVKFLSKKGSLENNIREFPEYFAAQA
modifications: left off: (His)6, C-terminal, kept
notes: C-terminally (His)6-tagged Rpl10
co-purification with / interaction with Sqt1 (Sqt1-Flag): efficient co-purification of Sqt1-Flag

B4: ctRpl10(2–20) peptide (peptide)
peptide: ARRPARCYRYCKNKPYPKS
Kd (ctSqt1.52C-(His)6 [2]): 35 nM | Ka (ctSqt1.52C-(His)6 [3]): 2.82e+07 M⁻¹

B5: first 64 amino acids of Rpl10: first 64 amino acids of Rpl10, Y2H bait (protein, UniProt P41805 1-64, looked up, fragment)
chain: MARRPARCYRYQKNKPYPKSRYNRAVPDSKIRIYDLGKKKATVDEFPLCVHLVSNELEQLSSEA
modifications: Y2H bait
notes: first 64 amino acids of Rpl10, Y2H bait
Y2H interaction with Sqt1 (Sqt1): binds

B6: Rpl10(2–20) peptide (peptide)
peptide: ARRPARCYRYQKNKPYPKS
notes: Rpl10 (uL16), S. cerevisiae, N-terminal 19 amino acids without the N-terminal methionine; free amino group at the N terminus, free acid group at the C terminus; also called ScL10-N peptide lacking Met1 (amino acids 2–20); source: synthetic peptide (peptides&elephants)
Kd (Sqt1.53C-(His)6 [4]): ~21 nM | Ka (Sqt1.53C-(His)6 [5]): 4.78e+07 M⁻¹

B7: ctRpl10(1–20) peptide (peptide)
peptide: MARRPARCYRYCKNKPYPKS
Kd (ctSqt1.52C-(His)6 [2]): 442 nM | Ka (ctSqt1.52C-(His)6 [3]): 2.26e+06 M⁻¹

B8: Rpl10(1–20) peptide (peptide)
peptide: MARRPARCYRYQKNKPYPKS
notes: Rpl10 (uL16), S. cerevisiae, N-terminal 20 amino acids; free amino group at the N terminus, free acid group at the C terminus; also called ScL10-N peptide including Met1 (amino acids 1–20); source: synthetic peptide (peptides&elephants)
Kd (Sqt1.53C-(His)6 [4]): ~43 nM | Ka (Sqt1.53C-(His)6 [5]): 2.33e+07 M⁻¹
